In this series the test system is Asp97. Nature of the series: UV-vis. The settings on record: 150 mM NaCl; 50 mM Tris-HCl; Dark/ground state, retinal-bound, detergent-solubilised purified protein.

For the substance “HSG119 rhodopsin (blue-light absorbing proteorhodopsin homologue) (uncultured marine bacterium (metagenome sample HSG070119-03, seawater near King Sejong Station, King George Island, Antarctica))”, the pKa result is “around 5.8 and 8.0”.

For the origin of these results see publication PMC6987182.
